This is an account of results in PMC10901488 (Chemical Science, 2024).

One data set in a line: Solubilization test. The class given is physicochemical. The conditions noted are these: model peptides before tagging, or product after reaction with Mal-(EK)3.
For data set [1] the following is noted: due to its hydrophobicity; cited from earlier work.

For “1: C-terminal segment of IL-2 (residue 105–133) (CEYADETATIVEFLNRWITFCQSIISTLT; UniProt P60568 125-153, looked up, fragment) [compound 1]”, the “solubility (in words)” value in “Solubilization test” is listed as “poor solubility”.

As for insulin A chain: insulin A chain, the solubility result in data set [1] is given as “poor solubility”.
